Test [1] deals with T1, K8(1-85)/K18(1-72) heterotypic complex (human, UniProt P05787 2-86; P05783 2-73).
T1 construct: Heterotypic complex of two GST fusion proteins; not shown: glutathione S-transferase (GST) fusion partner, modified pGEX-2T vector
T1 chain 1: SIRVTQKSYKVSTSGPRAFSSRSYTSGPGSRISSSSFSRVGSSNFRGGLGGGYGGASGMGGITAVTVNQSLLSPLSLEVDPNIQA
T1 chain 2: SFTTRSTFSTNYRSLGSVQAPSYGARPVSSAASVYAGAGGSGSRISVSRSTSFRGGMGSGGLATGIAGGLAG
The experiment in a line: heterotypic association Western blot. In general terms: In western blotting, separated proteins are transferred to a membrane and probed.

Test [2] has as its target T2, intact K8/intact K18 heterotypic complex (recombinant GST fusion proteins) (human, UniProt P05787 2-483; P05783 2-430).
T2 construct: Heterotypic complex of two GST fusion proteins; also called intact K8/K18 complex; not shown: glutathione S-transferase (GST) fusion partner, modified pGEX-2T vector
T2 chain 1: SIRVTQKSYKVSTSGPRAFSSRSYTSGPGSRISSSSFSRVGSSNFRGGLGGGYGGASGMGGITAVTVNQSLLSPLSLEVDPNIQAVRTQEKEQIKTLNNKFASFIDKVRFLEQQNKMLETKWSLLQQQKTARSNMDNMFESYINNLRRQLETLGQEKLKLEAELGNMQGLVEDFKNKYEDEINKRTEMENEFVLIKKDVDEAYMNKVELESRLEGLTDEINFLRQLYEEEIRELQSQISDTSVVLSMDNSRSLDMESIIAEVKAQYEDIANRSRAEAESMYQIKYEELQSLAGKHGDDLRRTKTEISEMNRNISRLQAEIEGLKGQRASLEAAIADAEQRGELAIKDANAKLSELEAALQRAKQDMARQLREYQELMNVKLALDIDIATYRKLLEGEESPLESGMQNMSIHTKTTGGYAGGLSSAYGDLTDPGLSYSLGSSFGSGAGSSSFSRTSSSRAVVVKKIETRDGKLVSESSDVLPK
T2 chain 2: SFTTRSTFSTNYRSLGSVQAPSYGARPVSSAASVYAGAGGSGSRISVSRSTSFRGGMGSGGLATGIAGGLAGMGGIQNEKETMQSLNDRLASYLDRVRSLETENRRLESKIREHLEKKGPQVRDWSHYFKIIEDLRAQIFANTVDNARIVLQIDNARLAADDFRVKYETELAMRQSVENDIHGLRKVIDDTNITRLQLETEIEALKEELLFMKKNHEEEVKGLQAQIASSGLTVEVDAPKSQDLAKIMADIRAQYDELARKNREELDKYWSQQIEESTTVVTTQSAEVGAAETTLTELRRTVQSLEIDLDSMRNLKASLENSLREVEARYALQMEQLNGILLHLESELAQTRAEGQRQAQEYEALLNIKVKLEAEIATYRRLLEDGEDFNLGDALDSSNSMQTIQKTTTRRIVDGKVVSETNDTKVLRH
The experiment in a line: SPR (BIAcore), complex immobilized, COU-1 injected. For orientation: SPR reads the build-up and loss of mass on a sensor chip optically.

Test [3] addresses T3, K18(1-385) GST fusion protein (human, UniProt P05783 2-386).
T3 construct: Alone, not complexed; not shown: glutathione S-transferase (GST) fusion partner, modified pGEX-2T vector
T3 sequence: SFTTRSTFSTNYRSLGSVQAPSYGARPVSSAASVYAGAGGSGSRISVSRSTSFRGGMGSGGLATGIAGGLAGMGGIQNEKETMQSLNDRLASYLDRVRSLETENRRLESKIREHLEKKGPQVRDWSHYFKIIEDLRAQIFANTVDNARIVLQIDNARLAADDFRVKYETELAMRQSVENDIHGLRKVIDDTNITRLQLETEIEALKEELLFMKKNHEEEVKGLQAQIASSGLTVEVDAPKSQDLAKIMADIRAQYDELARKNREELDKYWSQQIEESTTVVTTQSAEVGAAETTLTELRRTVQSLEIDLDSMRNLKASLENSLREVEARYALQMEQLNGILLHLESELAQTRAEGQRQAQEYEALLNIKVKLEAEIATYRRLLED
The experiment in a line: Western blot of SDS-PAGE-separated K18 GST fusion proteins, stained with COU-1 alone.

Test [4] concerns the target T4, K18(1-124) GST fusion protein (human, UniProt P05783 2-125).
T4 construct: Alone, not complexed; not shown: glutathione S-transferase (GST) fusion partner, modified pGEX-2T vector
The description is as above.

Test [5] concerns the target T5, intact K8/K18(1-65) heterotypic complex (human, UniProt P05787 2-483; P05783 2-66).
T5 construct: Heterotypic complex of two GST fusion proteins; not shown: glutathione S-transferase (GST) fusion partner, modified pGEX-2T vector
T5 chain 1: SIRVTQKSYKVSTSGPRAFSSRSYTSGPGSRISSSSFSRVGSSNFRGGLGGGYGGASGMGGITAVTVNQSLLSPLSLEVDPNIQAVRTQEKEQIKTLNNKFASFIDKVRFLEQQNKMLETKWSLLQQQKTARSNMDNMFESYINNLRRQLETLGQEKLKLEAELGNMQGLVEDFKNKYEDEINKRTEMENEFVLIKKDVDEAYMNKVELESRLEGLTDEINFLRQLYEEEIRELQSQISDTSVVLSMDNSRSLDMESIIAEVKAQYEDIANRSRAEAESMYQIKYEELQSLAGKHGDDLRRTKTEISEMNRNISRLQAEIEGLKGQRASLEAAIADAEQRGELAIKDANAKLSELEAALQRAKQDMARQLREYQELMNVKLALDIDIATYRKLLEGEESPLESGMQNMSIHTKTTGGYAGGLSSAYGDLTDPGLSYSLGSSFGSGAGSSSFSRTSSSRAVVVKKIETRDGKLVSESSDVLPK
T5 chain 2: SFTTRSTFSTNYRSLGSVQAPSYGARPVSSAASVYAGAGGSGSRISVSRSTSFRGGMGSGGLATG
In words: heterotypic association Western blot (K18 fragments on the membrane, incubated with purified intact K8).

The target of test [6] is T6, K8(1-129)/intact K18 heterotypic complex (human, UniProt P05787 2-130; P05783 2-430).
T6 construct: Heterotypic complex of two GST fusion proteins; not shown: glutathione S-transferase (GST) fusion partner, modified pGEX-2T vector
T6 chain 1: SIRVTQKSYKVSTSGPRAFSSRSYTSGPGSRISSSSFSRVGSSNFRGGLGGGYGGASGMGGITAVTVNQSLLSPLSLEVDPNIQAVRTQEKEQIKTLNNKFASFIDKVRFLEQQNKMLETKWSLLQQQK
T6 chain 2: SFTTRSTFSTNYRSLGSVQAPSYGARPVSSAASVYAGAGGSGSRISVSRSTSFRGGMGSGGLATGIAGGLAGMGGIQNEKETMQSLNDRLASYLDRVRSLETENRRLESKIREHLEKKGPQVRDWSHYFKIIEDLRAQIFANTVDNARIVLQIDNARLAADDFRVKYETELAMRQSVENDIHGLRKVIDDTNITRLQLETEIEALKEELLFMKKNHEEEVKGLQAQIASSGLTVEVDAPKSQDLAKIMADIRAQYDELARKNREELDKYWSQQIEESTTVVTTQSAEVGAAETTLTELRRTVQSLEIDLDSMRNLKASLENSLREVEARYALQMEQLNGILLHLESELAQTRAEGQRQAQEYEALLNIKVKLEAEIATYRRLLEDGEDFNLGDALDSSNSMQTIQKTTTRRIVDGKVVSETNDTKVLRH
In words: ELISA: complex coated at 5 µg/ml, COU-1 in serial dilutions, AP-labeled anti-human kappa antibody. (In general: ELISA stands for enzyme-linked immunosorbent assay.)

Test [7] deals with T7, K8(1-85)/K18(1-124) heterotypic complex (human, UniProt P05787 2-86; P05783 2-125).
T7 construct: Heterotypic complex of two GST fusion proteins; not shown: glutathione S-transferase (GST) fusion partner, modified pGEX-2T vector
The experiment in a line: heterotypic association assay: blotted K8 proteins incubated with purified K18(1-124), then stained with COU-1.

The target in test [8] is T8, K8(1-85)/K18(1-213) heterotypic complex (human, UniProt P05787 2-86; P05783 2-214).
T8 construct: Heterotypic complex of two GST fusion proteins; not shown: glutathione S-transferase (GST) fusion partner, modified pGEX-2T vector
T8 chain 1: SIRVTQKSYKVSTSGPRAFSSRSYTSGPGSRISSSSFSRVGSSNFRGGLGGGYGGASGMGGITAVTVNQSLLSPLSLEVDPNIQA
T8 chain 2: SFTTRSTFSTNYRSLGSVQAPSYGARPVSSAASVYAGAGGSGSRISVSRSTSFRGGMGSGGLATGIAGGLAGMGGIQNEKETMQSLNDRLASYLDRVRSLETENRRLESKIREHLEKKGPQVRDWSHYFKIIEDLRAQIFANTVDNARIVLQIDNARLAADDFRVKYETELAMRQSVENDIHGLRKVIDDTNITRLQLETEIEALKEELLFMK
In words: heterotypic association assay: blotted K8 proteins incubated with purified K18(1-213), then stained with COU-1.

The Kd is a measure of binding affinity in units of concentration. One may read the koff as the rate constant with which the complex falls apart. A word on the kon: it is a measure of how fast the partners come together. A word on the EC50 (read off the curve): it is the midpoint of the concentration-response curve.

B1: human monoclonal IgM antibody COU-1 (antibody, V domains shown)
VH: GAEVKKPGASVKVSCKASDYTFSSYYMHWVRQAPGQGLEWMGIINPSGGSTSYAQKFQGRVTMTRDTSTNTVYMELSSLRSEDTAVYYCARDQVVVAATLSNYGMDVWGQGTTVTVSS
VL: ELTQSPGTLSLSPGERATLSCRASQSVSSSYLAWYQQKPGQAPRLLIYDASNRATGIPARFSGSGSGTDFTLTISSLEPEDFAVYYCQQGTNWGIAFGQGTRLDIKR
notes: Human IgM with kappa light chain, secreted by hybridoma B9165 (ECACC 87040201), purified from culture supernatant; also called HMab COU-1; HuMab COU-1
For the molecule B1, the binding result in test [1] is on record as “no binding (tested: COU-1 5 µg/ml)”; in test [3] it was “no binding (tested: 5 µg/ml COU-1 (P-0279))”; in test [4] it was “no binding (tested: 5 µg/ml COU-1 (P-0279))”; in test [5], “no binding (tested: COU-1 5 µg/ml)”; in test [7] it was “no binding (tested: 5 µg/ml COU-1 (P-0285))”; in test [8] it was “no binding (tested: 5 µg/ml COU-1 (P-0285))”. Also, the Ka in test [2] amounted to 1.8e+07 M⁻¹. In test [2], the Kd was 55 nM. The “fold lower binding than to the truncated complexes” value in test [2] was approximately 100 fold. For the same molecule, the koff in test [2] worked out at 0.0005 s⁻¹. The kon in test [2] worked out at 9100 M⁻¹ s⁻¹. Moreover, the “EC50 (read off the curve)” value in test [6] is approximately 0.6 µg/mL.

For the origin of these results see patent US20050048070A1 (published 2005).
